Experimental data as given in US9415135B2, “Methods and compositions for stabilizing the myocardium” (The Regents of the University of California, priority 2002, dated 2016).

Legend:
MMP-3 = MMP-3 (Homo sapiens, UniProt P08254); settings: MMP-13 to MMP-3; cited from earlier work
MMP-9 = MMP-9 (Homo sapiens, UniProt P14780); settings: MMP-13 to MMP-9; cited from earlier work
MMP-1 = target: T1, MMP-1 (Homo sapiens, UniProt P03956); settings: MMP-13 to MMP-1; cited from earlier work
T1 sequence (P03956 100-469): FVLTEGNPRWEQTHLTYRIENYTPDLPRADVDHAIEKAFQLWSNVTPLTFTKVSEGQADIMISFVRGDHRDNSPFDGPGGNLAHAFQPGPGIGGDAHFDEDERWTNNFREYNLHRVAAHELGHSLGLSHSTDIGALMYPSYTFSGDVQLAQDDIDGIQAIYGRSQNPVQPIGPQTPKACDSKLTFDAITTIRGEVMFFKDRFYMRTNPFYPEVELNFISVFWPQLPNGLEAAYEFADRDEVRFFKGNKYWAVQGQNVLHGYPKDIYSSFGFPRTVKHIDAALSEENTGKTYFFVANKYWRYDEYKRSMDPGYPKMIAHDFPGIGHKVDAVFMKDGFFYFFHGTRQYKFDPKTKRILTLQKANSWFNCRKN

[1] = tested on: neural stem cells (NSCs) from adult hippocampus; test: NSC adhesion and proliferation on peptide-modified IPNs (CyQUANT); assay type: cell-based, rat
Protocol: Neural stem cells were isolated from the hippocampi of adult female Fischer 344 rats as previously described (Lai, K., et al., Nat Neurosci, 6(1):21-7 (2003)). Cells at (200-10,000 cells/well) were seeded onto peptide-modified IPNs and laminin-modified culture wells and incubated (37° C., 5% CO2) in serum-free media consisting of DMEM/Hams F-12 medium with N−2 supplement. These media conditions were supplemented with various soluble factors to modulate cell behavior: 20 ng·ml^−1 basic fibroblast growth factor (bFGF) for cell proliferation or 1 μM retinoic acid with 5 μM forskolin for neuronal differentiation. Wells were rinsed every 48 hrs with fresh media.
NSCs isolated from the adult hippocampus were seeded onto bsp-RGD(15)-modified IPNs at various cell densities over four orders of magnitude. […] 18(2):337-45 (2002)). Such spheres provide less precise control over the cellular microenvironment, due in part to spatial gradients in signaling and nutrients and internal necrosis.
For quantitative assays of proliferation, the NSCs were seeded at 1000 cells per well on various surfaces and grown for 3-6 days, and cell number was determined using a fluorescent dye that binds to nucleic acids, CyQUANT (Molecular Probes, Eugene, Oreg.). Briefly, cells grown on a particular surface for a fixed duration were washed once with phosphate buffer saline and lysed in the manufacturer's buffer with dye. Next, the fluorescent intensity of resulting solution was measured. […] Any increase in cell number on the negative control bsp-RGE(15)-modified IPNs reflected growth of weakly adherent neurospheres (FIG. 2d-e). About 10 pmol·cm^−2 bsp-RGD(15) was needed to support proliferation of NSCs, corresponding to ˜10^6 ligands per cell for the 10 μm diameter cells.

[2] = tested on: neural stem cells (NSCs) from adult hippocampus; test: NSC phenotype and differentiation on peptide-modified IPNs (qRT-PCR, immunofluorescent staining); assay type: cell-based, rat; settings: 1 μM retinoic acid with 5 μM forskolin
Protocol: Neural stem cells were isolated from the hippocampi of adult female Fischer 344 rats as previously described (Lai, K., et al., Nat Neurosci, 6(1):21-7 (2003)). Cells at (200-10,000 cells/well) were seeded onto peptide-modified IPNs and laminin-modified culture wells and incubated (37° C., 5% CO2) in serum-free media consisting of DMEM/Hams F-12 medium with N-2 supplement. These media conditions were supplemented with various soluble factors to modulate cell behavior: 20 ng·ml^-1 basic fibroblast growth factor (bFGF) for cell proliferation or 1 μM retinoic acid with 5 μM forskolin for neuronal differentiation. Wells were rinsed every 48 hrs with fresh media. […] To assay phenotype, two methods were used: quantitative real time PCR (qRT-PCR) and immunofluorescent staining. […] Quantitative real time PCR was used as a complementary technique to accurately quantify specific cDNA concentrations in various cDNA samples from cells grown on IPNs and laminin (using a Bio-Rad Laboratories iCycler). GFAP expression levels were quantified as a marker for astrocytic differentiation of the progenitor cells. β-Tubulin-III was used as a marker for neurons. […] The plasmids were linearized by restriction digest and quantified by absorbance, and tenfold serial dilutions from 1 ng/μL to 10^-9 ng/μL were prepared to generate a standard curve. […]

αIIBβ3 integrin = αIIBβ3 integrin (Homo sapiens, UniProt P05106+P08514); settings: low affinity; cited from earlier work
αIIBβ3 integrin, sequence (P08514 32-887 limits assumed): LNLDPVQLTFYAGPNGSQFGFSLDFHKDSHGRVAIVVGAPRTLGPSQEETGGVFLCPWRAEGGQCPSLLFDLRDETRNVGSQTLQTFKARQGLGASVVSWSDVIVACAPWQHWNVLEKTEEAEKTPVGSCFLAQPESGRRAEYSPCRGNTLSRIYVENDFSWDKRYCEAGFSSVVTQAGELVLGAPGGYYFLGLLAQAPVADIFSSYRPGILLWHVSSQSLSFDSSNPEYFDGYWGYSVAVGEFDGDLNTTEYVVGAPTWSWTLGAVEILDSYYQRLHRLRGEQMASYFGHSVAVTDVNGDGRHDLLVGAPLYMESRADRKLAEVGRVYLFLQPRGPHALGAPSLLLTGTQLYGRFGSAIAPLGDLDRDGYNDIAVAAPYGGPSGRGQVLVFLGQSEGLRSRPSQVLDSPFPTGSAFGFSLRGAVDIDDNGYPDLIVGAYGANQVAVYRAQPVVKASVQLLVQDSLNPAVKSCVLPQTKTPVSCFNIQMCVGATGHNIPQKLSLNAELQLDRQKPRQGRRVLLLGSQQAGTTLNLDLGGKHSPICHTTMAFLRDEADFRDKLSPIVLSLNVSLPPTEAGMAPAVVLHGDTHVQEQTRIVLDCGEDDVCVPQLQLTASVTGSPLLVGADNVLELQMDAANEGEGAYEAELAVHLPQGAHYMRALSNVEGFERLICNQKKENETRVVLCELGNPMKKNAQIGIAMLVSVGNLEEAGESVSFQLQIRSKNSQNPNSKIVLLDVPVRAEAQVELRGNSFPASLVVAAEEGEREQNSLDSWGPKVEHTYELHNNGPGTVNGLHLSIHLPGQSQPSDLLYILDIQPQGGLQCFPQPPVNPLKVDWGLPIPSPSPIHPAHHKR
αIIBβ3 integrin, sequence (P08514 891-1039 partner limits assumed): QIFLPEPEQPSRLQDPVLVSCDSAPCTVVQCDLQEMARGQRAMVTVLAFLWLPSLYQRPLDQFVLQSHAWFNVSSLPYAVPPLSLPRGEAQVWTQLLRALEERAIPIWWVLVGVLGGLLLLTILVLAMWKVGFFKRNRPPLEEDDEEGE
αIIBβ3 integrin, sequence (P05106 27-788): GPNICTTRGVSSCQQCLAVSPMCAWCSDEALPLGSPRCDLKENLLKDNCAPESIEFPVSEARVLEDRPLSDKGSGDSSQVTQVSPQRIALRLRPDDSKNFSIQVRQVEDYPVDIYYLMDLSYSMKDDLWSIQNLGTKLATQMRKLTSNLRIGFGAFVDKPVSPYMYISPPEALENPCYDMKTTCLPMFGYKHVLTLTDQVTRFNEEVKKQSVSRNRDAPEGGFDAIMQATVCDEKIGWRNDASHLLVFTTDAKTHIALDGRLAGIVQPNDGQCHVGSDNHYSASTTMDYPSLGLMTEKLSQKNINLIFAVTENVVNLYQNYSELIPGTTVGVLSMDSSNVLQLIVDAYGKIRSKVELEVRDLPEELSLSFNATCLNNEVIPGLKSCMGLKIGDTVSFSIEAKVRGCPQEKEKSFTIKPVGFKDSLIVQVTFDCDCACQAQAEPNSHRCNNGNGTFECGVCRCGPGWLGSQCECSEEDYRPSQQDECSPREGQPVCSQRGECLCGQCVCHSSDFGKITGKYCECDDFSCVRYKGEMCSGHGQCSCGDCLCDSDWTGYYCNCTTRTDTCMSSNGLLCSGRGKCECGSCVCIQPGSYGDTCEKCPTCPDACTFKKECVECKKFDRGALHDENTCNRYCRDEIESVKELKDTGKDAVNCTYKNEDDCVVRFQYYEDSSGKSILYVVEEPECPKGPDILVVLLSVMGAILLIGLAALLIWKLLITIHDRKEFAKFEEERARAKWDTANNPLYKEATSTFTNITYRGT

αvβ5 integrin = αvβ5 integrin (Homo sapiens, UniProt P06756+P18084); settings: low affinity; cited from earlier work
αvβ5 integrin, sequence (P06756 31-889 limits assumed): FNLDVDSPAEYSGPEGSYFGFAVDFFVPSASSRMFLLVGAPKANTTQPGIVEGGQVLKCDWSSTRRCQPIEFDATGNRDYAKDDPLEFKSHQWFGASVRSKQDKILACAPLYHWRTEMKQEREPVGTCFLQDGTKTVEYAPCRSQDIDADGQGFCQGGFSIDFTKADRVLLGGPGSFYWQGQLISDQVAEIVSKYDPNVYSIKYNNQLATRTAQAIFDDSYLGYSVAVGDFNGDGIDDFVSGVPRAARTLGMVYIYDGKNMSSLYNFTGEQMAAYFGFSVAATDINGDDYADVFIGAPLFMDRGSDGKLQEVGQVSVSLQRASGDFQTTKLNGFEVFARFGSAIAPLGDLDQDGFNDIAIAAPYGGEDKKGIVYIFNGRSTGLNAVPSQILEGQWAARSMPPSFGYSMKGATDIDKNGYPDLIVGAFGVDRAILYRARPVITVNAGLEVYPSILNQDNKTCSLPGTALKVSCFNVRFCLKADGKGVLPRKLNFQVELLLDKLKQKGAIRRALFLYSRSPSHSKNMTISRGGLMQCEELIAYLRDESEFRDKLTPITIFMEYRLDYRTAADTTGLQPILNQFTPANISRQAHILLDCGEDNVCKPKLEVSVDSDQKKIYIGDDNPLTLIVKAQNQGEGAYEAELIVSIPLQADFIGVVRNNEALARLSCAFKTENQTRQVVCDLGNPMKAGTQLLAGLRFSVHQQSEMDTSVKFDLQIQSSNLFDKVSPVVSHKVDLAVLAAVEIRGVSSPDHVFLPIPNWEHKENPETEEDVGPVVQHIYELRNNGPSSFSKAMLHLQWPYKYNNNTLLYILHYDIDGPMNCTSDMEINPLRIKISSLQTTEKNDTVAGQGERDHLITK
αvβ5 integrin, sequence (P06756 891-1048 partner limits assumed): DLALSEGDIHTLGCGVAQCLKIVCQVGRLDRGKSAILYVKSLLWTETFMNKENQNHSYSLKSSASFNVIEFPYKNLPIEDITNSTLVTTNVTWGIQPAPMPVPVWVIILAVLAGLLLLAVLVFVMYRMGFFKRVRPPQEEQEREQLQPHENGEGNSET
αvβ5 integrin, sequence (P18084 24-799): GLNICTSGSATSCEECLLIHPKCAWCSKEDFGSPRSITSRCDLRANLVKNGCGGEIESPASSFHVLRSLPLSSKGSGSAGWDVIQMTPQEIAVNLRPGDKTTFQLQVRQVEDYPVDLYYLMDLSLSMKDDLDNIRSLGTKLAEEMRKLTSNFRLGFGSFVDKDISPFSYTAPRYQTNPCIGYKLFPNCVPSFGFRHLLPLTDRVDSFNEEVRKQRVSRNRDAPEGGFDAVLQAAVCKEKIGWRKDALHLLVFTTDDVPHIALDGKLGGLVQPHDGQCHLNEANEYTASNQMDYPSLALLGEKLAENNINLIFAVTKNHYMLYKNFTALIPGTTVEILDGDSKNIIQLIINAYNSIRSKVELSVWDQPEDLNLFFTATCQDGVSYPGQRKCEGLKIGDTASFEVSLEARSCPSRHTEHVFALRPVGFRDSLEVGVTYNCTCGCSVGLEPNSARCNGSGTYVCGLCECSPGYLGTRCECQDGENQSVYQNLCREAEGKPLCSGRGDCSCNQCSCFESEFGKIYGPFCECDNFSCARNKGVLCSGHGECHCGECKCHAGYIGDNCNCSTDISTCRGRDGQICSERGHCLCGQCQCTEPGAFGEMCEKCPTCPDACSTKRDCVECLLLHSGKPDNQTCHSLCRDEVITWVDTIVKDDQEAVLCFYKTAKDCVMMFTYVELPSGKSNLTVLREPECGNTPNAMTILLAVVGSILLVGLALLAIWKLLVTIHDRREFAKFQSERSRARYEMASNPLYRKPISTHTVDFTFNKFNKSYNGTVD

αvβ3 integrin = αvβ3 integrin (Homo sapiens, UniProt P05106+P06756); settings: high affinity; read-out: IC50, αvβ3 integrin binding; cited from earlier work
αvβ3 integrin, sequence (P06756 31-889 limits assumed): as the sequence (P06756 31-889 limits assumed) above
αvβ3 integrin, sequence (P06756 891-1048 partner limits assumed): as the sequence (P06756 891-1048 partner limits assumed) above
αvβ3 integrin, sequence (P05106 27-788): as the sequence (P05106 27-788) above

MMP-3, sequence (P08254 100-477, species assumed): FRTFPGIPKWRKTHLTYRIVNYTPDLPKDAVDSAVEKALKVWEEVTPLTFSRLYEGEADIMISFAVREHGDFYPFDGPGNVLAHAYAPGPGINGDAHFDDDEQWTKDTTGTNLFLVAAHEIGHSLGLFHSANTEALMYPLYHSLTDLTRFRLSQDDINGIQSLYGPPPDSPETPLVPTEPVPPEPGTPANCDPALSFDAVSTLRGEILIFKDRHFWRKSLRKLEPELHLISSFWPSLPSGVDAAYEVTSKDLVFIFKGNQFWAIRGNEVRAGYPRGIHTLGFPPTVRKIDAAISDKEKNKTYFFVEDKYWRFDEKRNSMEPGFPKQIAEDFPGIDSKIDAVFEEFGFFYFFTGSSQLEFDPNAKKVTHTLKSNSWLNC
MMP-9, sequence (P14780 94-707, species assumed): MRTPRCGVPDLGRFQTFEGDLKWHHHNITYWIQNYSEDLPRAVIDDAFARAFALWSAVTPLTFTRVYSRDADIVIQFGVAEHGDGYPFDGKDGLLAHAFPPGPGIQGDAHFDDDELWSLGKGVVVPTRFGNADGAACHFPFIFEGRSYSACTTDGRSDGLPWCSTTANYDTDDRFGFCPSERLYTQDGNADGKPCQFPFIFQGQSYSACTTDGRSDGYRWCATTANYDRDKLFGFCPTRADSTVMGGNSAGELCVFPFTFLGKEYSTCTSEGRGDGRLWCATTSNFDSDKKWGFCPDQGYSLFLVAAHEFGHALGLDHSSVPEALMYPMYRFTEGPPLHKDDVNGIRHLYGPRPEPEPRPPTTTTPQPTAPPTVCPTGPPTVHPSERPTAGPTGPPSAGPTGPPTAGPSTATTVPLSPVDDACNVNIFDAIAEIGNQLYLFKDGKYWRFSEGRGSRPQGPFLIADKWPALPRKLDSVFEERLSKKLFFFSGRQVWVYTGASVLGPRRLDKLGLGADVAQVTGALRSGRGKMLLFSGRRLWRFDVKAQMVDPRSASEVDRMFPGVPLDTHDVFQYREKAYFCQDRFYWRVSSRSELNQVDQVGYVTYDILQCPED

| Substance | Selectivity (kcat/Km ratio for MMP-13 to MMP-x), MMP-3 (MMP-3) | Selectivity (kcat/Km ratio for MMP-13 to MMP-x), MMP-9 (MMP-9) | Selectivity (kcat/Km ratio for MMP-13 to MMP-x), MMP-1 (MMP-1) | further results |
| --- | --- | --- | --- | --- |
| C2-12P3A: literature MMP-13 peptide substrate, P4-P3' G A L G L S L (SEQ ID NO: 26) (GALGLSL; test peptide substrate) [Sample C2-12P3A] | 14 | 4.6 | 8.3 |  |
| C2-22: literature MMP-13 peptide substrate, P4-P4' G P R P F N Y L (SEQ ID NO: 24) (GPRPFNYL; test peptide substrate) [Sample C2-22] | 7.9 | 21 | 180 |  |
| C3-16: literature MMP-13 peptide substrate, P4-P4' G P K G V Y S L (SEQ ID NO: 27) (GPKGVYSL; test peptide substrate) [Sample C3-16] | 3600 | 2.2 | 5500 |  |
| C5-27: literature MMP-13 peptide substrate, P4-P4' G P F G F K S L (SEQ ID NO: 25) (GPFGFKSL; test peptide substrate) [Sample C5-27] | 250 | 4.8 | 2900 |  |
| CGGNGEPRGDTYRAY (15-mer bone sialopeptide sequence; bsp-RGD(15)) |  |  |  | bsp-RGD(15) surface density needed to support proliferation of NSCs ([1]; grafted on IPN): About 10 pmol·cm^−2 |
| CGGNGEPRGETYRAY (bone sialopeptide sequence; bsp-RGE(15)) |  |  |  | NSC adhesion / attachment ([1]; proliferating or differentiating media conditions): did not support attachment |
| CP: literature MMP-13 peptide substrate, P4-P4' G P L G M R G L (SEQ ID NO: 23) (GPLGMRGL; test peptide substrate) | 1300 | 11 | 820 |  |
| CSRARKQAASIKVAVSADR (lam-IKVAV(19) peptide) |  |  |  | NSC proliferation ([1]; proliferating media (bFGF)): did not enhance either cell proliferation or differentiation; NSC differentiation into neural lineages [2]: did not enhance either cell proliferation or differentiation |
| H-Glu[cyclo (Arg-Gly-Asp-D-Phe-Lys)]2 [bicyclic RGD peptide reported by Janssen et al] |  |  |  | IC50 (αIIBβ3 integrin): 10 nM; IC50 (αvβ5 integrin): 10 nM; IC50 (αvβ3 integrin): 0.9 nM |
